Test results: US20260097101

Legend:
[1] = target: Native pancreatic polypeptide (PP)

B1: purified porcine DPP-4 (dipeptidyl peptidase-4) (protein)
chain: DSRRTYTLTDYLKSTFRVKFYTLQWISDHEYLYKQENNILLFNAEYGNSSIFLENSTFDELGYSTNDYSVSPDRQFILFEYNYVKQWRHSYTASYDIYDLNKRQLITEERIPNNTQWITWSPVGHKLAYVWNNDIYVKNEPNLSSQRITWTGKENVIYNGVTDWVYEEEVFSAYSALWWSPNGTFLAYAQFNDTEVPLIEYSFYSDESLQYPKTVRIPYPKAGAENPTVKFFVVDTRTLSPNASVTSYQIVPPASVLIGDHYLCGVTWVTEERISLQWIRRAQNYSIIDICDYDESTGRWISSVARQHIEISTTGWVGRFRPAEPHFTSDGNSFYKIISNEEGYKHICHFQTDKSNCTFITKGAWEVIGIEALTSDYLYYISNEHKGMPGGRNLYRIQLNDYTKVTCLSCELNPERCQYYSASFSNKAKYYQLRCFGPGLPLYTLHSSSSDKELRVLEDNSALDKMLQDVQMPSKKLDVINLHGTKFWYQMILPPHFDKSKKYPLLIEVYAGPCSQKVDTVFRLSWATYLASTENIIVASFDGRGSGYQGDKIMHAINRRLGTFEVEDQIEATRQFSKMGFVDDKRIAIWGWSYGGYVTSMVLGAGSGVFKCGIAVAPVSKWEYYDSVYTERYMGLPTPEDNLDYYRNSTVMSRAENFKQVEYLLIHGTADDNVHFQQSAQLSKALVDAGVDFQTMWYTDEDHGIASNMAHQHIYTHMSHFLKQCFSLP
[P^3]PP
  DPP-4 stability (degradation by purified DPP-4, 5 mU, 0-8 h; RP-HPLC and MALDI-ToF): >8 h
[1]
  DPP-4 stability (degradation by purified DPP-4, 5 mU, 0-8 h; RP-HPLC and MALDI-ToF): <2 h
